The text below walks through data of patent US20230406950A1 (LYVGEN BIOPHARMA, published 2023).

Read-outs that look alike come from different tables or passages of the source.

Assay [1] has as its target T1, human CD137 expressed on cells (human, UniProt Q07011 24-255).
T1 construct: whole, on cells; also called 4-1BB; TNFRSF9
Description: FACS on CHO cells expressing human CD137 (MFI). The method, then: (§1) Anti-GITR/CD137 bi-specific antibodies were analyzed by FACS for their binding properties to human GITR and/or human CD137 expressed on CHO cells. Briefly, cultured cells were harvested, counted and cell viability was evaluated using the Trypan Blue exclusion method. Viable cells were then adjusted to 2×10⁶ cells per mL in PBS containing 2% BSA. 100 μL of this cell suspension were further aliquoted per well into a V-bottom 96-well plate. […] After incubation for 2 hours at 4° C., cells were centrifuged (3 min, 1000× g), washed with 250 μL/well BSA-containing FACS Stain Buffer, resuspended and incubated for an additional 1 hour at 4° C. with 100 μL/well fluorochrome-conjugated anti-IgG antibody for detection of the bisepecific antibody. Cells were then washed with 250 μL/well BSA-containing FACS Stain Buffer, resuspended in 100 μL/well FACS Stain Buffer, acquired and analyzed using a FACS machine. Binding of the bispecific antibodies to human GITR or human CD137 expressing CHO cells were evaluated and the mean fluorescence intensity is plotted in histograms or dot plots.

Assay [2] has as its target T2, human OX40 expressed on CHO cells (human, UniProt P43489 29-277).
T2 construct: whole, on cells
T2 sequence (looked up): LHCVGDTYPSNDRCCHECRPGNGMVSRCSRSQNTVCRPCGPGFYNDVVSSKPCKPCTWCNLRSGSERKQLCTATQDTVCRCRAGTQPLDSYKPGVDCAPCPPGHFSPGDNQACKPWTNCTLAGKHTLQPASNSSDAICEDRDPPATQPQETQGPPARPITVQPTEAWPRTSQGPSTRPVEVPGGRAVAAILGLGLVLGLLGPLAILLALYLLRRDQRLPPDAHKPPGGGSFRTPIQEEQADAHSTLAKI
Nature of the assay: FACS on CHO cells expressing human OX40 (MFI). The method, then: as §1, with “Anti-OX40/CD137” for “Anti-GITR/CD137”, “OX40” for “GITR”, “1000×g),” for “1000× g),”

In assay [3] the target is T1, human CD137 expressed on cells. Nature of the assay: FACS on CHO cells expressing human CD137 (MFI). The method, then:
as §1, with “Anti-OX40/CD137” for “Anti-GITR/CD137”, “OX40” for “GITR”, “1000×g),” for “1000× g),”
The source holds these as a separate data set.

T1 sequence (Q07011 24-255): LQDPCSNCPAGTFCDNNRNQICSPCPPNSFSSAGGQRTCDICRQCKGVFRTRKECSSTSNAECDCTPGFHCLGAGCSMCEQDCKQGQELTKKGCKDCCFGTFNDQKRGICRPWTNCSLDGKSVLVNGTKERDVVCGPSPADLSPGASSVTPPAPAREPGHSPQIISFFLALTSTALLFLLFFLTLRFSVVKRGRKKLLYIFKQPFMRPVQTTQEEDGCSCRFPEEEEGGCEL

B1: Ly759 (bispecific antibody, human IgG1, kappa)
heavy: QVQLQESGPGLVKPSETLSLTCTVSGFSLTSYNVHWIRQPPGKGLEWIGVIWSGVRTDYNSVLKPRVTISVDTSKNQFSLKLSSVTAADTAVYYCARGTYDDNYHDVMDAWGQGTLVTVSSASTKGPSVFPLAPSSKSTSGGTAALGCLVKDYFPEPVTVSWNSGALTSGVHTFPAVLQSSGLYSLSSVVTVPSSSLGTQTYICNVNHKPSNTKVDKKVEPKSCDKTHTCPPCPAPELLGPSVFLFPPKPKDTLMISRTPEVTCVVVDVSHEDPEVKFNWYVDGVEVHNAKTKPREEQYNSTYRVVSVLTVLHQDWLNGKEYKCKVSNKALPAPIEKTISKAKGQPREPQVYTLPPSREEMTKNQVSLTCLVKGFYPSDIAVEWESNGQPENNYKTTPPVLDSDGSFFLYSKLTVDKSRWQQGNVFSCSVMHEALHNHYTQKSLSLSPGGGGGSGGGGSGGGGSGGGGSQVQLVQSGAEVKKPGASVKVSCKASGYTFAGFEMHWVRQAPGQGLEWMGAIDPKTGGTDYNQKFKDRVTMTRDTSISTAYMELSRLRSDDTAVYYCARDLGYFDVWGQGTLVTVSSGGGGSGGGGSGGGGSGGGGSDIQMTQSPSSLSASVGDRVTITCRASQDIRSNLNWYQQKPGGAVKLLIYYTSRLHSGVPSRFSGSGSGTDYTLTISSLQPEDFATYFCQQSEKLPRTFGGGTKVEIR
light: EIVLTQSPATLSLSPGERATLSCRASKSVRTGMHWYQQKPGQAPRLLIYGASNLESGIPARFSGSGSGTDFTLTISSLEPEDFAVYYCQQSWNHFTFGQGTKLEIKRTVAAPSVFIFPPSDEQLKSGTASVVCLLNNFYPREAKVQWKVDNALQSGNSQESVTEQDSKDSTYSLSSTLTLSKADYEKHKVYACEVTHQGLSSPVTKSFNRGEC
notes: Anti-GITR/CD137: TM685-derived heavy chain fused to Ly1630 scFv (VH-VL); TM685 light chain
By EC50 (read off the curve) is commonly meant the concentration needed to bring the measured effect to its halfway point. The low end stands for greater potency, the high end for weaker potency. On to B1, for which, in assay [1], the 50% effective concentration (EC50 (read off the curve)) was ~0.6 mg/L.

B2: Ly769 (bispecific antibody, human IgG1, kappa)
heavy: EVQLVQSGAEVKKPGASVKVSCKASGYTFTDSYMSWVRQAPGQGLEWIGDMYPDNGDSSYNQKFRERVTITRDTSTSTAYLELSSLRSEDTAVYYCVLAPRWYFSVWGQGTLVTVSSASTKGPSVFPLAPSSKSTSGGTAALGCLVKDYFPEPVTVSWNSGALTSGVHTFPAVLQSSGLYSLSSVVTVPSSSLGTQTYICNVNHKPSNTKVDKKVEPKSCDKTHTCPPCPAPELLGPSVFLFPPKPKDTLMISRTPEVTCVVVDVSHEDPEVKFNWYVDGVEVHNAKTKPREEQYNSTYRVVSVLTVLHQDWLNGKEYKCKVSNKALPAPIEKTISKAKGQPREPQVYTLPPSREEMTKNQVSLTCLVKGFYPSDIAVEWESNGQPENNYKTTPPVLDSDGSFFLYSKLTVDKSRWQQGNVFSCSVMHEALHNHYTQKSLSLSPGK
light: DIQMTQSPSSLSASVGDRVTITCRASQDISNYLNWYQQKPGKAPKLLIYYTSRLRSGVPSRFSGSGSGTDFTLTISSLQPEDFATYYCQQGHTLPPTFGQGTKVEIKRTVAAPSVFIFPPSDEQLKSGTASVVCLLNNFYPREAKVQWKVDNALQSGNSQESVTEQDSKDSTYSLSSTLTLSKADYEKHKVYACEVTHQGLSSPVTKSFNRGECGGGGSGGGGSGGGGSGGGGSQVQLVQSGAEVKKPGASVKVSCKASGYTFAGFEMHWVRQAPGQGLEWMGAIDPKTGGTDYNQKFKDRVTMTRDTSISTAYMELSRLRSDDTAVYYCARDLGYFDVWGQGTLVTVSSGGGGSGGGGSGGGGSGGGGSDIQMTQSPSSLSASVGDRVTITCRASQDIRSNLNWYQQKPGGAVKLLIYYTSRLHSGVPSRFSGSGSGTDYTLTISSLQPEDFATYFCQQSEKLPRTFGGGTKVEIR
notes: Anti-OX40/CD137: Ly598-derived heavy chain
As for B2, the binding result in assay [2] is “binds”. For the same molecule, the “EC50 (read off the curve)” value in assay [3] was ~0.6 mg/L.

B3: Ly756 (bispecific antibody, human IgG1, kappa)
heavy: QVQLVQSGAEVKKPGASVKVSCKASGYTFAGFEMHWVRQAPGQGLEWMGAIDPKTGGTDYNQKFKDRVTMTRDTSISTAYMELSRLRSDDTAVYYCARDLGYFDVWGQGTLVTVSSASTKGPSVFPLAPSSKSTSGGTAALGCLVKDYFPEPVTVSWNSGALTSGVHTFPAVLQSSGLYSLSSVVTVPSSSLGTQTYICNVNHKPSNTKVDKKVEPKSCDKTHTCPPCPAPELLGPSVFLFPPKPKDTLMISRTPEVTCVVVDVSHEDPEVKFNWYVDGVEVHNAKTKPREEQYNSTYRVVSVLTVLHQDWLNGKEYKCKVSNKALPAPIEKTISKAKGQPREPQVYTLPPSREEMTKNQVSLTCLVKGFYPSDIAVEWESNGQPENNYKTTPPVLDSDGSFFLYSKLTVDKSRWQQGNVFSCSVMHEALHNHYTQKSLSLSPGK
light: DIQMTQSPSSLSASVGDRVTITCRASQDIRSNLNWYQQKPGGAVKLLIYYTSRLHSGVPSRFSGSGSGTDYTLTISSLQPEDFATYFCQQSEKLPRTFGGGTKVEIRRTVAAPSVFIFPPSDEQLKSGTASVVCLLNNFYPREAKVQWKVDNALQSGNSQESVTEQDSKDSTYSLSSTLTLSKADYEKHKVYACEVTHQGLSSPVTKSFNRGECGGGGSGGGGSGGGGSGGGGSEIVLTQSPATLSLSPGERATLSCRASKSVRTGMHWYQQKPGQAPRLLIYGASNLESGIPARFSGSGSGTDFTLTISSLEPEDFAVYYCQQSWNHFTFGQGTKLEIKGGGGSGGGGSGGGGSGGGGSQVQLQESGPGLVKPSETLSLTCTVSGFSLTSYNVHWIRQPPGKGLEWIGVIWSGVRTDYNSVLKPRVTISVDTSKNQFSLKLSSVTAADTAVYYCARGTYDDNYHDVMDAWGQGTLVTVSS
notes: Anti-GITR/CD137: Ly1630 heavy chain; Ly1630 light chain fused to TM685 scFv (VL-VH)
As for B3, the “EC50 (read off the curve)” value in assay [1] was ~0.1 mg/L.
